Laboratory results from patent US20240218057A1 (ROCKEFELLER UNIVERSITY, published 2024).

Molecular target: T1, SARS-COV-2 RBD (SARS-COV-2, UniProt P0DTC2 319-539)
T1 construct: also called WT RBD
Assay: ELISA, RBD coated on plate

Row | Binder | EC50 [ng/mL]
1 | C926 (antibody, V domains shown) VH: QVQLVESGGGVVQPGRSLRLSCAASGFGLITYSMHWVRQAPGKGLEWVGLISFDGNTTYYADSVRGRFTISRDNLANILYLQMNSLRPDDTALYYCARDKRGVIRGLLNFWGQGSLVTVSS VL: DIVMTQSPDSLAVSLGERATINCKSSQSLLPSSNSNNYLAWYQQKSGQPPNLLIYWASTRESGVPDRFSGSGSETDFSLTISNLQAEDVAVYYCQQYYNTPHTFGGGTKVEI | 4.72
2 | C924 (antibody, V domains shown) VH: QVQLVESGGGVVQPGRSLRLSCAASGFTFSSYGMHWVRQAPGKGLEWVAVISDDGSNKYYADSVKGRFTISRDNSKNTLYLQMNSLRAEDTAVYYCAKSWWLSENWFDPWGQGTLVTVSS VL: EIVMTQSPATLSVSPGERATLSCRASQSVSSNLAWYQQKPGQAPRLLIYGASTRATGIPARFSGTGSGTEFTLTISSLQSEDFAVYYCQQYNNWPLTFGGGTKVEIK | 2.5
3 | C925 (antibody, V domains shown) VH: QVQLVESGGGVVQPGRSLRLSCAASGFTFSNYGLHWVRQAPGKGLEWVAVTSDDGNRKYYADSVKGRFTISRDDSKNTLYLQMNNLRTEDTAVYYCAKSWWLSENWFDPWGQGTLVTVSS VL: EIVMTQSPATLSVSPGERATLSCRASQSVRSNLAWYQQRPGQAPRLLIYGAFTRATGIPARFSVSGSGTEFTLTIDSLQSEDFAVYYCQQYNNWPLTFGGGTKVEIK | 2.26
4 | C932 (antibody, V domains shown) VH: QVQLVESGGSVVQPGKSLRLSCAGSGFAFSTYGMHWVRQAPGKGLEWVAVISSDGGNKYYADSVKGRFTISRDNYENTLYLQMNSLGAEDTAVYYCAKVALRGVFISLYYGMDVWGQGTTVTVSS VL: SYELTQPPSVSVTPGQTASITCSGDKLGDKYACWFLQKPGQSPLLVIYQDTKRPSGIPDRLSGSKSGNTATLTISGTQAMDEADYYCQTWDSSAVVFGGGTKLTV | 3.57
5 | C935 (antibody, V domains shown) VH: QVQLVESGGGVVQPGRSLRLSCAATGFTFSSYGMHWVRQAPGKGLEWVALIWYDGSNQYYVDSVKGRFTISRDNSKKTLYLQMNSLRVEDTAVYYCARDFSNSDMVTLSDAFDIWGQGTMVTVSS VL: DIQLTQSPSFLSASVGDRVTIACRASQGISSYSSYLAWYQQKPGKAPKLLIYAASTLQSGVPSRFSGSGSGTEFTLTISSLQPEDFATYYCQQLNSYPLFTFGPGTKVDIK | 2.86
6 | C934 (antibody, V domains shown) VH: QVQLVQSGAEVKKPGASVKVSCKASGYTFTDYYIHWVRQAPGQGLEWMGWINPNSGGTNYAQKFQGRVTMTRDTSISTAYMDLSRLRSDDTAVYYCARDVIITMGRGVVFRMDVWGQGTTVTVSS VL: not shown | 0.95
7 | C931 (antibody, V domains shown) VH: QVQLVESGGGVVQPGRSLRLSCAASGFSFSTYGMHWVRQAPGKGLEWVAVISFDGSQKYYGDSVKGRFTISRDNPKNTLDLQMNSLRAEDTAVYYCAKVVVRGVIISLYYGMDVWGQGTTVTVSS VL: not shown | 2.57
8 | C928 (antibody, V domains shown) VH: QVQLVESGGGVVQPGRSLRLSCAASGFTFSFFDMHWVRQAPGKGLEWVADISYDGSNQYYGDSVKGRFTISRDNSKSTLYLQMNSLRAEDTAVYYCAKPVDTAMFDSWGQGTLVTVSS VL: SYELTQPPSVSVAPGETARITCGGNNIGHKSVHWYQQQPGQAPVLVIYYDSERPSGIPERFSGSNSGNTATLTISRVEAGDEADYHCQVWDGGNDHLVIFGGGTKLTVL | 4.14
9 | C922 (antibody, V domains shown) VH: QVQLVESGGGLVKPGGSLRLSCAGSGFTFTDYYMAWIRQAPGKGLEWVSYISTSDRFINYADSVKGRFTISRDDAKNSLYLQMNSLRAEDTAVYYCARDGGGYDRFDHWGQGTLVTVSS VL: DIQMTQSPSSLSASVGDRVTITCQASQDISNLLNWYQQKAGKAPKLLIYDASNLETGVPSRFSGSGSGTDFTFTISSLQPEDIATYYCLQYDNLPLTFGQGTKLEIK | 2.42
10 | C923 (antibody, V domains shown) VH: QVQLVESGGGLVKPGGSLRLSCAASGFTFSDYHMTWIRQAPGKGLEWVSYISNRSTYRNYADSVKGRFTISRDNAKNSLYLQMNSLRAEDTAVYYCARDGGAYDRFDYWGQGTLVTVSS VL: DIQMTQSPSSLSASVGDRVTITCQASQDIKKFLNWYQQKPGKAPKLLIYDASNLETGVPSRFSGSGSGTDLTFTISSLQPEDIATYYCQQYDNLPLTFGQGTKLEIK | 1.95
11 | C929 (antibody, V domains shown) VH: EVQLVESGGGLIQPGGSLRLSCAASGFTVSSNYMTWVRQAPGKGLEWVSVIYSGGTTYYADSVKGRFTISRDNSKNTLYLQMNSLRAEDTAVYYCARDLVVWGMDVWGQGTTVTVSS VL: DIQLTQSPSFLSASVGDRVTITCRASQGISSYLAWYQQKPGKAPKLLIYAASTLQSGVPSRFSGSGSGTEFTLTISSLQPEDFATYYCQLLNSYPYTFGQGTKLEIK | 2.07
12 | C936 (antibody, V domains shown) VH: EVQLVESGGGLIQPGGSLRLSCAASGFTVSSNYMSWVRQAPGKGLEWVSVIYSGGSTFYADSVKGRFTISRDNSKNTLYLQMNSLRAEDTAVYYCARDLGTGLFDYWGQGTLVTVSS VL: DIQLTQSPSFLSASVGDRVTITCRASQGISSYLAWYQQKPGKAPKLLIYAASTLQSGVPSRFSGSGSGTEFTLTISSLQPEDFATYYCQQLDSYPPGTFGPGTKVDIK | 1.56
13 | C930 (antibody, V domains shown) VH: EVQLVESGGGLFQPGGSLRLACAASGITVSSNYMSWVRQPPGKGLEWVSVIYAGGSTFYADSVKGRLTISRDNSKNTLYLQINSLRAEDTAVYYCARDLVVWGMDVWGQGTTVTVSS VL: DIQLTQSPSFLSASVGDRVTITCRASQGISSYLAWYQQKPGKAPKLLIYAASTLQSGVPSRFSGSGSGTEFTLTISSLQPEDFATYYCQQLNTYPYTFGQGTKLEIK | 1.24
14 | C937 (antibody, V domains shown) VH: EVQLVESGGGLIQPGGSLRLSCAASELTVSSNYMSWVRQAPGKGLEWVSVIYPGGSTFYADSVKGRFTISRDNSKNTLYLQMNSLRAEDTAVYYCARDLGTGLFDYWGQGTLVTVSS VL: DIQLTQSPSFLSASVGDRVTITCRASQGISSYLAWYQQKPGKAPKLLIYAASTLQSGVPSRFSGSGSGTEFTLTISSLQPEDFATYFCQLLNSNPPGTFGPGTKVDIK | 0.97
15 | C938 (antibody, V domains shown) VH: QVQLVESGGGVVQPGRSLRLSCAASGFTFRSHAMHWVRQAPGKGLEWVAIISSDGFNKYYADSVKGRFTISRDNSKNTLYVHMNSLRVEDTAIYYCASGLLWFETREISGAPDYGMAVWGQGATVTVSS VL: DIQMTQSPSSLSASVGDRVTITCRASQNISNFLNWYQQKPGKAPKLLIYAASSLQSGVPSRYSGSGSGTDFTLTISSLQAEDFATYYCQQSYSTPLTFGGGTKVEIK | 2.63
16 | C927 (antibody, V domains shown) VH: QVQLVESGGGVVQPGRSLRLSCVASGFTFSYFDMHWVRQAPGKGLEWVALISHDGSTTFYGDSARGRFTISRDNSRNTLDLQMNSLRPEDTAVYFCAKPVDAAMFDFWGQGTLVTVS VL: SYELTQPPSVSVAPGKTARITCGGNNIGSKSVHWYQQRPGQAPVLVIYYDSDRPSGIPERFSGSNSGNTATLTISRVEAGDEADFYCQVWDRSTNHLVVFGGGTQLTVL | 3.77
